This note sets out measurements from the supplement of paper PMC12783771.

± gives the standard deviation of the averaged measurements.

To fix the notation:
B1: library; a variant is named by its letters at X, in order (parent)
chain: MNIQIGELAKRTACPVVTIRFYEQEGLLPPPGRSRGNFRLYGEEHVERLQFIRHCRSLDMPLSXVRTLLSYRKRPDQDCGEVXMLLDEHXRQVESRIGALLELXHXLVELREACSGARPAQSCGILQGLSDCVCDTRGTTAHXSD

The variants in series [1] derive from B1. Briefly: sfGFP reporter fluorescence (15 h) (µM FITC); higher = higher leak. The note with it: library round: Round 3b; ligand: none. On the procedure: (§1)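 Cell-free biosensing: 1 µL Echo-assembled CFE reactions with linear PbrR variant templates (5 nM) and pPbrR-sfGFP reporter, with 1 µM Pb, 30 µM Zn or no ligand; endpoint sfGFP fluorescence after 15 h at 30 °C calibrated as µM FITC. Round 3b rational combinatorial PbrR mutants; 3 biological replicates.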

Variants of B1 are the subject of series [2]. Briefly: sfGFP reporter fluorescence (15 h) (µM FITC); higher = stronger transcriptional activation. The note with it: library round: Round 3b. On the procedure:
as §1

MNIQIGELAKRTACPVVTIRFYEQEGLLPPPGRSRGNFRLYGEEHVERLQFIRHCRSLDMPLSDVRTLLSYRKRPDQDCGEVIMLLDEHARQVESRIGALLELTHHLVELREACSGARPAQSCGILQGLSDCVCDTRGTTAHRSD [DIATHR]: the sfGFP reporter fluorescence in series [1] was 0.0464 ± 0.003; in series [2] (ligand: 1 µM Pb), 0.0989 ± 0.0066; in series [2] (ligand: 30 µM Zn), 0.0456 ± 0.0036.

Take MNIQIGELAKRTACPVVTIRFYEQEGLLPPPGRSRGNFRLYGEEHVERLQFIRHCRSLDMPLSDVRTLLSYRKRPDQDCGEVIMLLDEHARQVESRIGALLELTHHLVELREACSGARPAQSCGILQGLSDCVCDTRGTTAHTSD [DIATHT]: the sfGFP reporter fluorescence came out at 0.0414 ± 0.0019 in series [1], 0.103 ± 0.0068 in series [2] (ligand: 1 µM Pb) and 0.0451 ± 0.0014 in series [2] (ligand: 30 µM Zn).

For MNIQIGELAKRTACPVVTIRFYEQEGLLPPPGRSRGNFRLYGEEHVERLQFIRHCRSLDMPLSDVRTLLSYRKRPDQDCGEVIMLLDEHARQVESRIGALLELTHALVELREACSGARPAQSCGILQGLSDCVCDTRGTTAHTSD [DIATAT], the sfGFP reporter fluorescence stood at 0.0409 ± 0.0016 in series [1], 0.112 ± 0.0062 in series [2] (ligand: 1 µM Pb) and 0.0458 ± 0.00085 in series [2] (ligand: 30 µM Zn).

For MNIQIGELAKRTACPVVTIRFYEQEGLLPPPGRSRGNFRLYGEEHVERLQFIRHCRSLDMPLSDVRTLLSYRKRPDQDCGEVIMLLDEHARQVESRIGALLELTHELVELREACSGARPAQSCGILQGLSDCVCDTRGTTAHTSD [DIATET], the sfGFP reporter fluorescence in series [1] was determined as 0.0419 ± 0.0022; in series [2] (ligand: 1 µM Pb) it was 0.0628 ± 0.00089; in series [2] (ligand: 30 µM Zn), 0.0452 ± 0.0012.

Turning to MNIQIGELAKRTACPVVTIRFYEQEGLLPPPGRSRGNFRLYGEEHVERLQFIRHCRSLDMPLSDVRTLLSYRKRPDQDCGEVIMLLDEHARQVESRIGALLELTHELVELREACSGARPAQSCGILQGLSDCVCDTRGTTAHPSD [DIATEP], the sfGFP reporter fluorescence in series [1] worked out at 0.046 ± 0.0012; in series [2] (ligand: 1 µM Pb), 0.0616 ± 0.0042; in series [2] (ligand: 30 µM Zn), 0.0456 ± 0.0029.

As for MNIQIGELAKRTACPVVTIRFYEQEGLLPPPGRSRGNFRLYGEEHVERLQFIRHCRSLDMPLSDVRTLLSYRKRPDQDCGEVIMLLDEHARQVESRIGALLELTHELVELREACSGARPAQSCGILQGLSDCVCDTRGTTAHRSD [DIATER], the sfGFP reporter fluorescence was found to be 0.0429 ± 0.0012 in series [1], 0.0627 ± 0.0026 in series [2] (ligand: 1 µM Pb) and 0.0413 ± 0.00067 in series [2] (ligand: 30 µM Zn).

For MNIQIGELAKRTACPVVTIRFYEQEGLLPPPGRSRGNFRLYGEEHVERLQFIRHCRSLDMPLSKVRTLLSYRKRPDQDCGEVIMLLDEHARQVESRIGALLELTHELVELREACSGARPAQSCGILQGLSDCVCDTRGTTAHPSD [KIATEP], the sfGFP reporter fluorescence in series [1] was determined as 0.0672 ± 0.0044; in series [2] (ligand: 1 µM Pb), 1 ± 0.062; in series [2] (ligand: 30 µM Zn), 0.0643 ± 0.0007.

As to MNIQIGELAKRTACPVVTIRFYEQEGLLPPPGRSRGNFRLYGEEHVERLQFIRHCRSLDMPLSKVRTLLSYRKRPDQDCGEVIMLLDEHARQVESRIGALLELTHELVELREACSGARPAQSCGILQGLSDCVCDTRGTTAHRSD [KIATER], the sfGFP reporter fluorescence in series [1] was 0.06373 ± 0.00019; in series [2] (ligand: 1 µM Pb), 1.25 ± 0.078; in series [2] (ligand: 30 µM Zn), 0.0603 ± 0.0035.

For the variant MNIQIGELAKRTACPVVTIRFYEQEGLLPPPGRSRGNFRLYGEEHVERLQFIRHCRSLDMPLSKVRTLLSYRKRPDQDCGEVIMLLDEHARQVESRIGALLELTHELVELREACSGARPAQSCGILQGLSDCVCDTRGTTAHTSD [KIATET], the results for the sfGFP reporter fluorescence in series [1], in series [2] (ligand: 1 µM Pb) and in series [2] (ligand: 30 µM Zn) were 0.0659 ± 0.0015, 1.15 ± 0.065 and 0.0663 ± 0.0026, respectively.

With MNIQIGELAKRTACPVVTIRFYEQEGLLPPPGRSRGNFRLYGEEHVERLQFIRHCRSLDMPLSKVRTLLSYRKRPDQDCGEVIMLLDEHARQVESRIGALLELTHHLVELREACSGARPAQSCGILQGLSDCVCDTRGTTAHRSD [KIATHR], the sfGFP reporter fluorescence in series [1] is 0.0655 ± 0.0015; in series [2] (ligand: 1 µM Pb), 1.19 ± 0.2; in series [2] (ligand: 30 µM Zn) it was 0.0963 ± 0.013.

Regarding MNIQIGELAKRTACPVVTIRFYEQEGLLPPPGRSRGNFRLYGEEHVERLQFIRHCRSLDMPLSKVRTLLSYRKRPDQDCGEVIMLLDEHARQVESRIGALLELTHHLVELREACSGARPAQSCGILQGLSDCVCDTRGTTAHPSD [KIATHP], the sfGFP reporter fluorescence in series [1] amounted to 0.07594 ± 0.00067; in series [2] (ligand: 1 µM Pb), 1.34 ± 0.049; in series [2] (ligand: 30 µM Zn), 0.0972 ± 0.014.

MNIQIGELAKRTACPVVTIRFYEQEGLLPPPGRSRGNFRLYGEEHVERLQFIRHCRSLDMPLSKVRTLLSYRKRPDQDCGEVIMLLDEHARQVESRIGALLELTHHLVELREACSGARPAQSCGILQGLSDCVCDTRGTTAHTSD [KIATHT]: the sfGFP reporter fluorescence was 0.0743 ± 0.0012 in series [1], 1.3 ± 0.031 in series [2] (ligand: 1 µM Pb) and 0.112 ± 0.0078 in series [2] (ligand: 30 µM Zn).

MNIQIGELAKRTACPVVTIRFYEQEGLLPPPGRSRGNFRLYGEEHVERLQFIRHCRSLDMPLSKVRTLLSYRKRPDQDCGEVIMLLDEHARQVESRIGALLELTHALVELREACSGARPAQSCGILQGLSDCVCDTRGTTAHTSD [KIATAT]: the values for the sfGFP reporter fluorescence in series [1], in series [2] (ligand: 1 µM Pb) and in series [2] (ligand: 30 µM Zn) were 0.0691 ± 0.0019, 1.29 ± 0.062 and 0.0697 ± 0.0016, respectively.

For MNIQIGELAKRTACPVVTIRFYEQEGLLPPPGRSRGNFRLYGEEHVERLQFIRHCRSLDMPLSKVRTLLSYRKRPDQDCGEVIMLLDEHARQVESRIGALLELTHALVELREACSGARPAQSCGILQGLSDCVCDTRGTTAHRSD [KIATAR], the sfGFP reporter fluorescence in series [1] was 0.069 ± 0.0014; in series [2] (ligand: 1 µM Pb), 1.49 ± 0.15; in series [2] (ligand: 30 µM Zn), 0.0681 ± 0.0007.
